Consider one substance from article PMC5032119.

In the experiment the target is Ku70-HisTag (mouse) (UniProt P23475). Nature of the experiment: fluorescence polarisation; FIDA-PO on an MF20 (Olympus) single molecule fluorescence spectroscopy; 5 nM fluorescent Ku70-HisTag in solution, 500 nM GST-HttExon1-110Q added; 40 ul per well, 384-well glass-bottom plate, PBS with 0.01% Tween 20 and 1% DMSO, room temperature. Background: Polarisation of emitted light reports the rotation of a fluorescent probe.
Sequence of UniProt P23475 (P23475 whole entry): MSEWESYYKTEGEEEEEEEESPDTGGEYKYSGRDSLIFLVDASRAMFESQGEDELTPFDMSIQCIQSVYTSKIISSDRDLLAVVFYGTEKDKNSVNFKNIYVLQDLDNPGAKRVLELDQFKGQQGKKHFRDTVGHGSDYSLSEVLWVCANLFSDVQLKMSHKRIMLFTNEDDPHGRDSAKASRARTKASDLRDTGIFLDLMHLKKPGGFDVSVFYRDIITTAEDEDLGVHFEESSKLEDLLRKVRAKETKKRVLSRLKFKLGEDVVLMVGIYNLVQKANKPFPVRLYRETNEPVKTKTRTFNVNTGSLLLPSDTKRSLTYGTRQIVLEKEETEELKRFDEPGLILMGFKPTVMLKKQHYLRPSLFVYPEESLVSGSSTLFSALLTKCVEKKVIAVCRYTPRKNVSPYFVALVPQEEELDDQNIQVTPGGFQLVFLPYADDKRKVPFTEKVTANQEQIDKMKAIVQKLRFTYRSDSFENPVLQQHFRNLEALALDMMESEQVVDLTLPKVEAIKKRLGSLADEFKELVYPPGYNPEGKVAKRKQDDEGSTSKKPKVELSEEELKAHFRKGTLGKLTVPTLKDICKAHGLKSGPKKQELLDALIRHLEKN

Sequence of GST-HttExon1-110Q (P42858 whole entry, change not shown): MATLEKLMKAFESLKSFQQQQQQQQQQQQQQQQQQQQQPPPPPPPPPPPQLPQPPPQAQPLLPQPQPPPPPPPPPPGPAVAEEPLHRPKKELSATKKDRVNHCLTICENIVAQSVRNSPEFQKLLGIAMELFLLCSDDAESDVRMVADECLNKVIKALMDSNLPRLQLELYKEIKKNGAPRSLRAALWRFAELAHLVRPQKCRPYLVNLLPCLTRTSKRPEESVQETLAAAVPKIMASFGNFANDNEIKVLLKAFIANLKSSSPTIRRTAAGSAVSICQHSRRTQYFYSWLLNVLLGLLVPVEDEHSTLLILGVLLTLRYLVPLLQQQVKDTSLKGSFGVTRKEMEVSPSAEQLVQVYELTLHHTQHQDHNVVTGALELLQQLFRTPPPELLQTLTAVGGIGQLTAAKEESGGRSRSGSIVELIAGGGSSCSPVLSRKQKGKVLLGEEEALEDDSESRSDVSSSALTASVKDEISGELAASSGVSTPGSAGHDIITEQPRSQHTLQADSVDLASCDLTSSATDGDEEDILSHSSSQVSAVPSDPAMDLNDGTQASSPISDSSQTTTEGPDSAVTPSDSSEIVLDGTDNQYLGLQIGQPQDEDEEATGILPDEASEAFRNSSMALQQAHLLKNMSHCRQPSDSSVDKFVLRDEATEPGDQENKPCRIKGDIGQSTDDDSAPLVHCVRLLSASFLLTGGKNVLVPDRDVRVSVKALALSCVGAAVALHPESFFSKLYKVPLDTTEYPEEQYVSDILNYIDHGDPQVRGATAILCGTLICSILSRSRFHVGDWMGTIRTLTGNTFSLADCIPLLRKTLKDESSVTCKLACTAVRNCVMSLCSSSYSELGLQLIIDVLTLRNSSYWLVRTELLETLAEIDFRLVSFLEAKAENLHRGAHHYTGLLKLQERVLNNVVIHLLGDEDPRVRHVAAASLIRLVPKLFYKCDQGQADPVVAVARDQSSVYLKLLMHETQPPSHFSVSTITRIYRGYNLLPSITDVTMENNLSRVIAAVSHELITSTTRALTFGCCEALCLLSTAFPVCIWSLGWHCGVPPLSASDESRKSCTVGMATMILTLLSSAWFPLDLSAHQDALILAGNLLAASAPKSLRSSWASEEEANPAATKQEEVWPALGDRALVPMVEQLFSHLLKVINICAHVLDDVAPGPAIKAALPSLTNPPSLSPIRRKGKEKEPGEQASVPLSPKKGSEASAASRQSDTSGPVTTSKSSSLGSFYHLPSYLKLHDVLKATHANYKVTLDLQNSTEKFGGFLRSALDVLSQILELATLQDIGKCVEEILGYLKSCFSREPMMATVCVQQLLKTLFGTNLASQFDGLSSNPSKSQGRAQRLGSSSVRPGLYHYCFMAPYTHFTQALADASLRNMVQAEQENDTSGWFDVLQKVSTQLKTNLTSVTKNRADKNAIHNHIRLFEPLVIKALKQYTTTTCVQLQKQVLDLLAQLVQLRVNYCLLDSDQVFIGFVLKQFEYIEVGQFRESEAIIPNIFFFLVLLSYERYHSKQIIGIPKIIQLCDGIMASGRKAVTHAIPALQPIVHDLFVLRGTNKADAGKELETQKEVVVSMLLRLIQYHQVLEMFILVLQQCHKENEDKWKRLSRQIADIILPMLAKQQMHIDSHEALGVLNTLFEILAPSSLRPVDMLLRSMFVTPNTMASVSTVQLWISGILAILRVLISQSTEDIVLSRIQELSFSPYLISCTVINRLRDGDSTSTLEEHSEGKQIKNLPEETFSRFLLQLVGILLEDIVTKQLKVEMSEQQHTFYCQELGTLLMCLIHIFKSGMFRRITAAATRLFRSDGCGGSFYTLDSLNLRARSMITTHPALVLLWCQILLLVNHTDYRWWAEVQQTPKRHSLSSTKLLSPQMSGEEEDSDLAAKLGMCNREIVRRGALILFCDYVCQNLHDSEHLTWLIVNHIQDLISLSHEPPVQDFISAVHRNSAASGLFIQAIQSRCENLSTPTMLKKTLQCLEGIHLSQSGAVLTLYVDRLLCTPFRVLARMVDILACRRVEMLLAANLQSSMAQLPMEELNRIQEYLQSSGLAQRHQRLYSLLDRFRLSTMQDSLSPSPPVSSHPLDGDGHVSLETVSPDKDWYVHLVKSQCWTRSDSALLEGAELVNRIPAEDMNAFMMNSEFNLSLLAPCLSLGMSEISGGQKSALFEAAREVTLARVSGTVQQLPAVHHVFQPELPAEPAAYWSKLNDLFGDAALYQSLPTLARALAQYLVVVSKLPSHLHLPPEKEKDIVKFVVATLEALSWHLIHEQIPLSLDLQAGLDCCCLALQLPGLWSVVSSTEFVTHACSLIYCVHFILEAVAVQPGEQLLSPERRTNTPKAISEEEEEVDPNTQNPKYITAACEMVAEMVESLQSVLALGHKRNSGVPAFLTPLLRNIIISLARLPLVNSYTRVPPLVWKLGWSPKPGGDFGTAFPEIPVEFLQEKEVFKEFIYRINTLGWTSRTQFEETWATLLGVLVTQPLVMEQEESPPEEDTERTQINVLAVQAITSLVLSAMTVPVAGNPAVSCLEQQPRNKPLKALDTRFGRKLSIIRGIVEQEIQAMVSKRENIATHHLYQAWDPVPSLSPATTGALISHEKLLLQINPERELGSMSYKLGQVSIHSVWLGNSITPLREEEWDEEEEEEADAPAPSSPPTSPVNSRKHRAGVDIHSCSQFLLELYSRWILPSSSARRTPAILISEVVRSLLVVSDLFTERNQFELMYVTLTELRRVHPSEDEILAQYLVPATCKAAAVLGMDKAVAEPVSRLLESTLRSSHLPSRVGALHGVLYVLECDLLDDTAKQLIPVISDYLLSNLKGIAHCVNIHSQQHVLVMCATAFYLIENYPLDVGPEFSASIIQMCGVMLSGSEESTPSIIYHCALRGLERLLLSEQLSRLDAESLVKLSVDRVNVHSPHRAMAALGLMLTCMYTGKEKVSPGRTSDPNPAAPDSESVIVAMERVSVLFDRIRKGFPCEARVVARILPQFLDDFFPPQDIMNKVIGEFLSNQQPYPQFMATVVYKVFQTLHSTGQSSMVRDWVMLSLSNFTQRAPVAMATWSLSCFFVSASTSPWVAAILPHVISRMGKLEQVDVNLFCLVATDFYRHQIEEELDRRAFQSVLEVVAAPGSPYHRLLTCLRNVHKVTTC

GST-HttExon1-110Q (domain or fragment): the fluorescence polarization score was 140.
